In the DeepSol protein solubility set:

Test: soluble on expression in E. coli; label from the status in PepcDB or PDB records

| Sequence | soluble on expression in E. coli |
| --- | --- |
| MSAPAAAPKHPGKVFLDPSEVADHLAEYRIVDCRYSLKIKDHGSIQYAKEHVKSAIRADVDTNLSKLVPTSTARHPLPPCAEFIDWCMANGMAGELPVLCYDDECGAMGGCRLWWMLNSLGADAYVINGGFQACKAAGLEMESGEPSSLPRPATHWPFKTAFQHHYLVDEIPPQAIITDARSADRFASTVRPYAADKMPGHIEGARNLPYTSHLVTRGDGKVLRSEEEIRHNIMTVVQGAGDAADLSSFVFSCGSGVTACINIALVHHLGLGHPYLYCGSWSEYSGLFRPPIMRSIIDDYGMCMQMQTPSLGDNPKANLDTMTLKVDGAPCERPDAEVQSAATHLHAGEAATVYFKSGRVVTIEVPVVPNLEA | soluble |
| MSAPLFSVVVPAYNQHKFIDSCLTSLQRQTLTDFEVFVVDDCSTDDTGEQIAALIKGDDRFHVITHAHNRGVSAARNSGMAAAKGKYLCFVDGDDWVEPDFLATFLAAYRSAPDTQLVVCGHYGYLAVPSPAKTYNQKDLIANINFGTVGGFSWNKAFIRSIITTHHLKFNEDIDFLEDQLFAFRYANYVQSSEYVPDRTYHYRWRFRSNLAHIGIPFFTARRKMMKILKQENKQVLNEDWNNQ | not soluble |
| MSAQLTDSYGLLEARVTELKGELADAGVQRLQELAEKERLANRLQNLLDLLPGGVIVIDGMGVVREANPAAIDLLGQPLLGMLWRHVISRCFAPREDDGHEVSLKDGRRLSIATRSLDAEPGQLVLLNDLT | not soluble |
| MSAQVQDLTPIKGVTYYYPPHDAVLVFKDGAAEIPYGGLPVPLLEEDYASLDGEPSYDAVGRGVYQTLRTNPDCIHCAAYATLLRDAYPHYLAELASHAIMLDSKDVEVPYIDRKIVSLKVLSLLEPDNAGLPLEIGRAYLDRGLRLSALHMSTVSIYRAEHFLRRALELTPEDGRALRLLGEVCYLLGKYEEAASCWLDTLDLADADEAERFRVRLARISEGRLPLIAPVDYLEAIGAAFTCFHTGDYEEAVAILQDVLMDGIFCAEFPIADIHCVIGKSFVQLDMPRYAEESFRAALQLDPAHEESLACLRKVTGEELEHHHHHH | soluble |
| MSDCNWTNPLCNTSLLLASGYALWSCASKKNKKETKTETKKSHDCPPQTIEPVKDEKNSNSEEKKTTSSNNEVPPQKKLIGNDEVKKEKKKSEDDLLDVKKTASKEDDKKRMDKKDPSKKLSKEKLREEKKEQSKKVNKEKKMNKSESVDEDNEQPPEPGSDPRKIWAFKAAKMKCQAISKLHQDKIKGYMPPNCTYTAYDANPDLNRYADVRCIEETRVVLKNHDRDYIHASWMRMPGKDQSTYITTQGPLPETLSDFWHMIYQEKIAYVLMLCTLFEGGVEKCALYYPEKLGEVVKFGKYEITLTECKEEAIAGTIWNALTVTNTEDASSEPLYMNHVQVPWWPDQLAPEDARPMIELYKWVKKVNPKETPICVHCSAGVGRTATFVGIDYATIRIMENPNIEMLDIVREMRAMRFQAVQSHMQFLFLYVVLMEYFIGEGVVERTGRVDTFMTQYKKHAQKKLAKRAAQNQQGEKLAAEEKEKDKVKV | soluble |
| MSDDARFQQLNCWLDSCLPELFVAEGWGEVPPAELIPASSDASFRRYFRWQGGDRSLVVMDAPPPQEDCRPFVKVAGLLAGAGVHVPRILAQDLENGFLLLSDLGRQTYLDVLHPGNADELFEPALDALIAFQKVDVAGVLPAYDEAVLRRELQLFPDWYLARHLGVELEGETLARWKRICDLLVRSALEQPRVFVHRDYMPRNLMLSEPNPGVLDFQDALHGPVTYDVTCLYKDAFVSWPEPRVHAALNRYWKKATWAGIPLPPSFEDFLRASDLMGVQRHLKVIGIFARICHRDGKPRYLGDVPRFFRYLETAVARRPELAELGELLASLPQGAEA | not soluble |
| MSDEALTLLFSAVENGDQNCIDLLCNLALRNDDLGHRVEKFLFDLFSGKRTGSSDIDKKINQACLVLHQIANNDITKDNTEWKKLHAPSRLLYMAGSATTDLSKKIGIAHKIMGDQFAQTDQEQVGVENLWCGARMLSSDELAAATQGLVQESPLLSVNYPIGLIHPTTKENILSTQLLEKIAQSGLSHNEVFLVNTGDHWLLCLFYKLAEKIKCLIFNTYYDLNENTKQEIIEAAKIAGISESDEVNFIEMNLQNNVPNGCGLFCYHTIQLLSNAGQNDPATTLREFAENFLTLSVEEQALFNTQTRRQIYEYSLQ | not soluble |
| MSDEEIDISTALNNKTTPKKKSLKRNSNSQEGYESPEEREIVYPSVFGAIGTPMAKSDNAKEWDEWKEKERKKDKAEWKRYLRSKWDMTQGHLPLVSDSEFLKGRKEHKEYNSKARMDILDGLDEVNEGFFNCGKGAAMNIRYNDKNVSKKGAKKFVATVETAMKKAGNPTMEQMMTDDLDEDEARAEAEWERQREQRKLASRAYDAAMDEREDDAKYVPWDEYCQEMEELGKELKIGEKHYKKWLEKKMDENKVTHKFNAYQLDLKCLDEDAFSNKKSLKSVVRNVQKFYRKMREPKK | not soluble |
| MSDEKKKKRGFFRYSVLTTSSFSSWRRSSTSGSISQSSRTTSKTTTSSSVTSSNPINAPPPTATSSSSVLPSTSSEPPPPASAPPRISIYHKMVPSKSKFRQCDVCEHIFIFDFVRKQHLDDVYACNVCGIRVHKGCLDRVKNDCKITTQYMGGILENAVIQSNKKQWEKPTTASISKSLTTSPTCSTSTTMSPAGVEKNVHKTRKLISMTTSTLDDVTTFNSEINEEMDEETVLMTWEDVTIKLTDVDVMTKIGDGRFGSVYFGGYHGNAAVRFVNMNYLSQEDRRADVFATEIVSAYKNSRHDHIALFYGYVSDPVTNTYAIVTNFYQHNTLYHRIHEQLSEDFDQSWTFQISLQICQAMSYLHKKKILHRDLRTKNILLDNPNRVVVTDFALMKLERLENPRRNCTLLIPNHWIDYLSPEIAGNLMIDWRGDVLFQHELPFSQESDVYSFGTIFFELLLRRMPTGCDSWDQKLYAKMCGQKAALQRLDAQLQKIDGKLHELLLECWSSQPEKRPSFQQIVKRITVQMPRKESNKQKRRSTAHENPLF | not soluble |
| MSDIPAGDYEKGKKVYKQRCLQCHVVDSTATKTGPTLHGVIGRTSGTVSGFDYSAANKNKGVVWTRETLFEYLLNPKKYIPGTKMVFAGLKKADERADLIKYIEVESAKSL | not soluble |
| MSDKDFFSWRRTMLLRFQRMETAEEVYHEIELQAQQLEYDYYSLCVRHPVPFTRPKVAFYTNYPEAWVSYYQAKNFLAIDPVLNPENFSQGHLMWNDDLFSEAQPLWEAARAHGLRRGVTQYLMLPERALGFLSFSRCSAREIPILSDELQLKMQLLVRESLMALMRLNDE | soluble |
| MSDKPDSQVFCPNCNERLQKCLVQQNYAIIICPSLVCGYPFNQREVLENLTYVDDNDVLKVAKKRLSSRSKP | soluble |
| MSDLENKKAEEAPKKRPYNLREKKEKKAAYRSLIRPELADELYDKILNIVVVQKKYKDPDYSAKDLAKELKTNTRYLSAVVNSRFGMNYSCLLNEYRVKDALHLLTDKRYADKNVEEISAMVGFANRQSFYAAFYKNVGETPNGYRKKHAESKK | not soluble |
| MSDLFIHPELRFHSYGTWLRRRFGCNVSKVNVDGGFTCPNRDGSRGTGGCIYCDNASFSPGGTVPDKSIELQMAEGMAYHRQRLGSEKFIIYFQKFTNTYAPAARLRDLYTRALSHPDVVGISVGTRPDALADEALELLADLAQEHYVCIELGLQSMDDAILERINRGHTLDEYLRTVDRIAGRGIALCTHLIYGFPGETREGFLKTAHLLAGLPVDSVKLHQLHAVKGTRLAELYHRREFVPITLAEYVTTACDFLELLPPRI | not soluble |
| MSDMEKPWKEEEKREVLAGHARRQAPQAVDKGPVTGDQRISVTVVLRRQRGDELEAHVERQAALAPHARVHLEREAFAASHGASLDDFAEIRKFAEAHGLTLDRAHVAAGTAVLSGPVDAVNQAFGVELRHFDHPDGSYRSYVGDVRVPASIAPLIEAVLGLDTRPVARPHFRLRRRAEGEFEARSQSAAPTAYTPLDVAQAYQFPEGLDGQGQCIAIIELGGGYDETSLAQYFASLGVSAPQVVSVSVDGATNQPTGDPNGPDGEVELDIEVAGALAPGAKIAVYFAPNTDAGFLNAITTAVHDPTHKPSIVSISWGGPEDSWAPASIAAMNRAFLDAAALGVTVLAAAGDSGSTDGEQDGLYHVDFPAASPYVLACGGTRLVASAGRIERETVWNDGPDGGSTGGGVSRIFPLPSWQERANVPPSANPGAGSGRGVPDVAGNADPATGYEVVIDGETTVIGGTAAVAPLFAALVARINQKLGKPVGYLNPTLYQLPPEVFHDITEGNNDIANRARIYQAGPGWDPCTGLGSPIGIRLLQALLPSASQAQP | soluble |
